Positions count from the first letter of the chain named. Several values for one entry are separate records, joined by “and”; a condition that tells them apart may be missing. Equal values may be shown once.
T1: RSV F glycoprotein (NUF4) (respiratory syncytial virus)
T1 chain 1: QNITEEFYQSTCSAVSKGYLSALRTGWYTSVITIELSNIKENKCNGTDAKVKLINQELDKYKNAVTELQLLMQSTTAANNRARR
T1 chain 2: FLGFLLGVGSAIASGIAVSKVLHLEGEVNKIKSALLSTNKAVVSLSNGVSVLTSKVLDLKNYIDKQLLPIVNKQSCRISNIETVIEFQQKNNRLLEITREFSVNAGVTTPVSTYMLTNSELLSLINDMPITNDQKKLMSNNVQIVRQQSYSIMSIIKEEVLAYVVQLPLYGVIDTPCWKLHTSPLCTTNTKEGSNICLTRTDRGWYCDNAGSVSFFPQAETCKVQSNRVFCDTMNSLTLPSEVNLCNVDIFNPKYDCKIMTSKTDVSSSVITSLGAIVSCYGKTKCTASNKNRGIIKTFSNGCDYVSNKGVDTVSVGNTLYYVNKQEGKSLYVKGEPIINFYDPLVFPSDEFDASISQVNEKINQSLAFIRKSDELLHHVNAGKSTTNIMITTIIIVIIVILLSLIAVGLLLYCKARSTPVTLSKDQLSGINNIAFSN

B1: P11d4 (Fab fragment) (Fab, V domains shown)
VH: QVTLRESGPALVKPTQTLTLTCTFSGFSLSTPGMSVGWIRQPPGKALEWLADIWWDGKKHYNPSLKDRLTISKDTSKNQVVLKVTNMDPADTATYYCARDMIFNWYFDVWGQGTTVTVSS
VL: DIQMTQSPSTLSASVGDRVTITCSPSSRVGYMHWYQQKPGKAPKLLIYDTMRLASGVPSRFSGSGSGTEFTLTISSLQPDDFATYYCFQGSGYPFTFGGGTKVEIK
notes: Fab
B2: P12f4 (Fab fragment) (Fab, V domains shown)
VH: B1 VH with W105F
VL: B1 VL with P25L, M51R, R52G, A54P
notes: Fab
B3: P12f2 (Fab fragment) (Fab, V domains shown)
VH: B1 VH with G57D, W105F, Q112A
VL: B1 VL with P25L, M51F, R52Y, A54S
notes: Fab
B4: A13a11 (Fab fragment) (Fab, V domains shown)
VH: B1 VH with P32A, G57D, Q112A
VL: B1 VL with P25A, R28S, M51Y, L53H, V103L
notes: Fab
B5: A12a6 (Fab fragment) (Fab, V domains shown)
VH: B1 VH with P32A, H60D, W105F
VL: B1 VL with P25A, M51F, R52K, A54S
notes: Fab
B6: A1e9 (Fab fragment) (Fab, V domains shown)
VH: B1 VH
VL: B1 VL with P25L, M51F, R52K, A54S
notes: Fab; also called *Ale9
B7: A1e9 (monoclonal antibody) (antibody, V domains shown)
VH: B1 VH
VL: B1 VL with P25L, M51F, R52K, A54S
notes: mAb with framework and constant regions of SYNAGIS; also called Ale9
B8: A1h5 (Fab fragment) (Fab, V domains shown)
VH: B1 VH
VL: B1 VL with P25L, R28S, M51F, R52F, L53H, A54R, V103L
B9: A8c7 (monoclonal antibody) (antibody, V domains shown)
VH: B1 VH with P32A, G57D, H60S
VL: B1 VL with P25A, M51R, R52Y, L53Q, A54S, V103L
notes: mAb with framework and constant regions of SYNAGIS
B10: A12a6 (monoclonal antibody) (antibody, V domains shown)
VH: B1 VH with P32A, H60D, W105F
VL: B1 VL with P25A, M51F, R52K, A54S
notes: as for B9
B11: P11d4 (monoclonal antibody) (antibody, V domains shown)
VH: B1 VH
VL: B1 VL
notes: as for B9
B12: P12f2 (monoclonal antibody) (antibody, V domains shown)
VH: B1 VH with G57D, W105F, Q112A
VL: B1 VL with P25L, M51F, R52Y, A54S
notes: mAb with framework and constant regions of SYNAGIS; also called Pf12
B13: A17d4 (Fab fragment) (Fab, V domains shown)
VH: B1 VH with P32A, H60S, W105F
VL: B1 VL with S24L, R52Y, L53Q, G90F, V103L
B14: P12f4 (monoclonal antibody) (antibody, V domains shown)
VH: B1 VH with W105F
VL: B1 VL with P25L, M51R, R52G, A54P
notes: as for B9
B15: A4B4 (Fab fragment) (Fab, V domains shown)
VH: B1 VH with P32A, G57D, W105F
VL: B1 VL with P25A, M51F, R52F, A54D, V103L
B16: A8c7 (Fab fragment) (Fab, V domains shown)
VH: B1 VH with P32A, G57D, H60S
VL: B1 VL with P25A, M51R, R52Y, L53Q, A54S, V103L
B17: DG (Fab fragment) (Fab, V domains shown)
VH: B1 VH with P32A, G57D, H60D, D67S, F103T, W105F, Q112A
VL: B1 VL with P25A, R28S, M51F, R52K, V103L
B18: 1X-493L1FR (Fab fragment) (Fab, V domains shown)
VH: B1 VH with P32S, G57D, H60D, D67S, D100S, F103T, Q112A
VL: B1 VL with P25A, R28S, M51S, R52K, V103L
B19: M3H9 (Fab fragment) (Fab, V domains shown)
VH: B1 VH with P32A, G57D, H60D, D67S, Q112A
VL: B1 VL with P25A, R28S, M51Y, R52K, L53Q, A54T, V103L
B20: 6H8 (Fab fragment) (Fab, V domains shown)
VH: B1 VH with P32A, G57D, H60D, D67S, F103T, W105F, Q112A
VL: B1 VL with P25A, R28S, M51F, R52K, A54T, V103L
B21: Y10H6 (Fab fragment) (Fab, V domains shown)
VH: B1 VH with P32A, G57D, H60D, D67S, Q112A
VL: B1 VL with P25A, R28S, M51R, R52Y, A54S, V103L
B22: H3-3F4 (Fab fragment) (Fab, V domains shown)
VH: B1 VH with P32A, G57D, H60D, D67S, Q112A
VL: B1 VL with P25A, R28S, M51F, R52K, V103L

biological target: T2, F protein of wild type RSV A/Long (respiratory syncytial virus strain …, UniProt P12568 26-574); assay: cell-based or functional assay

Binder | EC50 (nM), in vitro microneutralization of RSV Long [nM]
B1 | > 20
B2 | 0.7
B3 | 0.65
B4 | 2.04
B5 | 0.62
B6 | 2.5

biological target: T2, F protein of wild type RSV A/Long; assay: cell-based or functional assay; remark: another data set of the same source

Binder | Fold Difference (Control IC50) [fold] | Fold Difference (Curve IC50) [fold] | Mean IC50 (Control), RSV microneutralization [mg/L] | Mean IC50 (Curve), RSV microneutralization [mg/L]
B7 | 8 | 7 | 0.0645 | 0.0625
B1 | – | – | > 1 | > 1
B8 | 3 | 2 | 0.176 | 0.194
B9 | 14 | 13 | 0.0383 | 0.0337
B10 | 15 | 13 | 0.0354 | 0.0357
B11 | 19 | 21 | 0.0289 | 0.0217
B2 | 15 | 10 | 0.0351 | 0.0464
B12 | 24 | 20 | 0.0223 | 0.0231
B13 | 31 | 25 | 0.0171 | 0.0179
B3 | 16 | 11 | 0.0326 | 0.0407
B4 | 5 | 4 | 0.102 | 0.12
B14 | 23 | 19 | 0.0235 | 0.0242
B5 | 17 | 16 | 0.031 | 0.0287
B6 | 4 | 3 | 0.125 | 0.157
B15 | 13 | 11 | 0.0411 | 0.0414
B16 | 34 | 3 | 0.157 | 0.177

Biological target: T1, RSV F glycoprotein (NUF4)
Assay: BIAcore, mAb vs NUF4 (1:1)

Binder | Kd [nM] | koff [s⁻¹] | kon [M⁻¹ s⁻¹] | number in parentheses after KD (fold against SYNAGIS = 1) [fold]
B7 | 0.69 | 0.000584 | 843000 | 13
B9 | 0.65 | 0.000535 | 825000 | 13
B10 | 0.73 | 0.000291 | 400000 | 12
B11 | 0.85 | 0.000766 | 904000 | 10
B12 | 0.33 | 0.000178 | 541000 | 26
B14 | 0.24 | 0.000229 | 943000 | 36

Biological target: T1, RSV F glycoprotein (NUF4)
Assay: BIAcore, mAb vs NUF4 (2:1)

Binder | Kd [nM] | koff [s⁻¹] | kon [M⁻¹ s⁻¹] | number in parentheses after KD (fold against SYNAGIS = 1) [fold]
B7 | 4.22 | 0.00139 | 329000 | 74
B9 | 2.65 | 0.00114 | 430000 | 118
B10 | 1.87 | 0.000408 | 218000 | 167
B11 | 8.55 | 0.00313 | 366000 | 36
B12 | 0.84 | 0.000236 | 282000 | 371
B14 | 2.33 | 0.000636 | 273000 | 134

biological target: RSV F protein (immobilized on the BIAcore sensor chip) (respiratory syncytial virus); assay: BIAcore, immobilized F protein;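 further: fab fragments as analytes binding F protein coupled to the chip via EDC/NHS chemistry, with blank surface signal subtracted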

Binder | koff | kon
B1 | 0.000717 s⁻¹ | 570000 M⁻¹ s⁻¹ and 572000 M⁻¹ s⁻¹
B17 | 0.000167 s⁻¹ and 0.000444 s⁻¹ | –
B2 | 0.000299 s⁻¹ | 527000 M⁻¹ s⁻¹
B18 | 0.00065 s⁻¹ | 185000 M⁻¹ s⁻¹
B19 | 0.000338 s⁻¹ | 605000 M⁻¹ s⁻¹
B20 | 0.000178 s⁻¹ and 0.000473 s⁻¹ | 314000 M⁻¹ s⁻¹ and 444000 M⁻¹ s⁻¹
B3 | 0.000282 s⁻¹ | 663000 M⁻¹ s⁻¹
B4 | 0.00025 s⁻¹ | 735000 M⁻¹ s⁻¹
B5 | 0.00023 s⁻¹ | 743000 M⁻¹ s⁻¹
B21 | 0.000462 s⁻¹ | 757000 M⁻¹ s⁻¹
B6 | 0.000453 s⁻¹ | 790000 M⁻¹ s⁻¹
B22 | 0.000445 s⁻¹ and 0.000402 s⁻¹ | –
